According to PMC3186789:
Primed or numbered codes have the meaning given here. The star is where a group is joined. Dabcyl′ = CN(C)c1ccc(/N=N/c2ccc(C(=O)*)cc2)cc1; EDANS = O=S(=O)(O)c1cccc2c(NCCN*)cccc12

Target: T1, Group B Streptococcus recombinant sortase A SrtA_(ΔN40) (Streptococcus agalactiae strain 515 (serotype Ia)) (UniProt Q8DZY1)
T1 sequence: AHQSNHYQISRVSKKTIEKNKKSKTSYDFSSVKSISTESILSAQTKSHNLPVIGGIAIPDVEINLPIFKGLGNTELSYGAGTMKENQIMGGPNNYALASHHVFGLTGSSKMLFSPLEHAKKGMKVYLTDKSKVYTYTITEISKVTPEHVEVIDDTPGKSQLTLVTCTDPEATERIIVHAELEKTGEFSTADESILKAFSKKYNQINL

B1: AP2-2a peptide (Dabcyl-SFLPKTGM-Edans) (peptide)
peptide: {Dabcyl′}-SFLPKTGM-{EDANS}
SMILES: CSCC[C@H](NC(=O)CNC(=O)[C@@H](NC(=O)[C@H](CCCCN)NC(=O)[C@@H]1CCCN1C(=O)[C@H](CC(C)C)NC(=O)[C@H](Cc1ccccc1)NC(=O)[C@H](CO)NC(=O)c1ccc(/N=N/c2ccc(N(C)C)cc2)cc1)[C@@H](C)O)C(=O)NCCNc1cccc2c(S(=O)(=O)O)cccc12
- apparent Michaelis constant K (m,app) of the transpeptidation reaction (FRET assay, 1-384 µM peptide, 3 µM SrtA (ΔN40), 75 mM triglycine, 37°C, 20 mM HEPES pH 7.5): 48.4 µM
